Reference: the supplement of paper PMC10567573

B1: FBXO34 (parent)
chain: ASSVESTLPVLEASSWKKQVSHDF

Variants of: B1
Test: protein stability index of a GFP-peptide fusion (GPS, HEK-293T) (PSI 1-6); higher = more stable
Settings: c terminus: a fixed tail appended
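Note: lentivirally expressed fusions sorted by FACS into six bins by GFP to DsRed ratio, PSI derived from sequencing read proportions per bin multiplied by bin number.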

Protein stability index: each site, then its substitutions
L11: E 3.02; I 2.91; F 2.88; G 2.01; M 2.33; R 3.05; V 3.03; P 2.78; Q 2.96; W 2.54; K 2.19; C 2.85; Y 2.69; T 2.87; N 2.85; A 3.52
L8: H 2.89; M 1.91; C 3.4; Y 2.39; K 3.22; S 3.57; V 1.83; P 2.66; I 2.82; E 3.38; T 3.38; R 3.05; F 2.52; G 3.59; Q 2.04
T7: C 3.31; N 3.55; E 2.88; P 2.31; S 3.94; V 2.85; Y 3.37; A 2.9; Q 4.86; F 2.92; K 2.82; D 3.63; R 2.7; L 2.42; H 3.21; M 2.48
Q19: M 2.27; H 4.77; R 1.95; P 4.53; Y 2.01; G 4.14; L 2.57; W 2.59; N 3.97; K 1.89; E 4.58; T 3.3; C 2.92; D 4.28; S 4.08; I 2.45; A 2.61; F 2.82
V10: F 2.22; R 2.3; S 3.22; A 3.64; M 3.73; T 2.58; G 3.41; K 2.45; W 2.37; E 2.83; Q 3.16; H 2.5; P 3.19; D 3.25; C 2.95; I 2.39; N 1.84; L 2.55; Y 1.76
S14: G 2.8; V 2.35; P 3.07; E 2.75; Y 2.3; L 2.14; M 1.53; N 3.02; C 2.95; D 1.67; R 2.39; T 2.33; I 3.74; F 2.49; H 2.4; Q 2.4; W 1.12
W16: D 5.44; F 3.67; Q 4.71; M 5.15; S 4.2; N 4.99; K 4.18; I 3.71; L 3.94; T 4.81; H 4.31; C 4.2; V 4.99; E 5.07; A 4.01; P 4.61; Y 3.75; G 4.66; R 4.69
D23: W 2.61; P 2.91; L 3.27; E 1.77; H 3.27; T 3.26; M 2.96; C 2.22; K 3.54; F 3.22; S 3.14; R 3.76; Q 2.93; I 2.07; Y 2.18; G 3.06; A 3.54
K17: G 2.98; T 1.61; N 3.75; C 3.17; D 4.16; I 1.59; P 3.95; F 2.85; W 2.02; Q 1.52; L 2.85; M 2.58; A 1.83; S 2.38; Y 2.38; H 3.17
H22: Q 2.58; Y 3.01; D 3.65; K 3.31; P 4.1; C 2.94; T 3.19; E 2.69; F 2.73; M 2.23; N 2.54; R 2.09; S 2.79; L 3.36; W 2.18; I 2.84; V 2.83; G 4.47
V20: D 4.84; R 4.22; K 4.3; I 3.69; Y 3.5; Q 4.01; G 4.09; E 4.85; T 4.29; L 3.55; A 3.91; F 3.72; M 4.34; C 3.44; P 4.04; W 2.47; N 4.13; H 4.6
S15: K 3.92; Q 3.44; F 2.75; A 3.05; D 4.01; H 3.24; Y 2.99; M 3.5; P 3.61; W 2.38; N 2.88; V 2.84; I 4.11; L 3.4; T 3.07; G 3.65; R 3.81
F24: A 3.78; H 3.98; G 2.98; C 3.49
P9: V 2.4; N 2.51; T 1.98; K 2.5; L 2.04; M 2.6; W 2.8; D 3.03; E 1.96; G 1.89; S 2.28; H 1.56; Y 1.8; F 2.12; C 3.55; I 1.74
V4: W 2.5; Q 3.53; I 2.75; T 2.88; M 2.51; S 3.01; R 2.64; P 2.77; Y 2.46
S21: K 3.26; Q 3.08; L 2.44; F 2.89; G 2.79; W 2.3; D 4.89; E 2.76; R 3.79; H 3.58; V 3.65; P 3.87; I 2.64; N 3.64; T 3.61; Y 2.97; M 3; C 2.72; A 3.31
S6: C 2.56; D 2.46; Y 2.48; H 2.42; M 2.36; A 3.41; L 3.18; R 2.43; W 3.02; F 1.76; T 3.06; I 1.7; N 3.83; P 2.96; K 2.76
E5: N 2.28; C 2.38; Q 2.51; I 2.17; K 2.48; M 2.84; H 2.4; S 3.21; V 2.9; W 2.03; G 2.61; Y 1.9; D 3.22; F 1.77; A 2.68; L 2.9
A13: P 3.66; V 3; H 2.37; M 2.85; S 3.36; R 1.59; D 3.19; Q 2.37; I 2.49; K 2.27; F 2.38; L 2.61; N 3.21; T 2.18; C 2.36
K18: Q 2.69; T 2.95; W 2.58; Y 2.44; R 3.15; L 2.83; N 2.94; H 2.39; E 1.38; S 3.72; D 1.88; V 2.53; A 2.21; F 1.8; M 1.5; C 2.11; I 2.37; P 2.99; G 3.49
E12: P 3.46; H 2.82; N 3.1; I 2.12; K 2.36; T 2.86; L 2.24; C 2.54; S 2.32; A 3.02; D 2.83; G 2.49; V 2.73; Y 2.22; F 2.25
